Laboratory results as given in US20220017622A1 (Pfizer, published 2022).
Numbering of substitutions follows the chain as printed.

T1: human B7-H4 on cells (human, UniProt Q7Z7D3 25-282)
T1 sequence (looked up): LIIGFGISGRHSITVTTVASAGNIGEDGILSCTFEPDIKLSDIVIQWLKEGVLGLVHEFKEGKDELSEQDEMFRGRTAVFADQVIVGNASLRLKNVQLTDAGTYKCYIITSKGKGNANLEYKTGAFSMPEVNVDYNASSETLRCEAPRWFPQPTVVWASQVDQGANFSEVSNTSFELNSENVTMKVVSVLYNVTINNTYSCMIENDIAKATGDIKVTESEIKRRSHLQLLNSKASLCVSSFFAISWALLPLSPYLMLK

B1: B7-H4xCD3 bispecific antibody 1168 (bispecific antibody, IgG2)
heavy 1: EVQLLESGGGLVQPGGSLRLSCAASGFTFSSYAMSWVRQAPGKGLEWVSAISGGGGSTYYADSVKGRFTISRDNSKNTLYLQMNSLRAEDTAVYYCARDIQWYGESTLFDYWGQGTLVTVSSASTKGPSVFPLAPCSRSTSESTAALGCLVKDYFPEPVTVSWNSGALTSGVHTFPAVLQSSGLYSLSSVVTVPSSNFGTQTYTCNVDHKPSNTKVDKTVERKCEVECPECPAPPVAGPSVFLFPPKPKDTLMISRTPEVTCVVVAVSHEDPEVQFNWYVDGVEVHNAKTKPREEQFNSTFRVVSVLTVVHQDWLNGKEYKCKVSNKGLPSSIEKTISKTKGQPREPQVYTLPPSREEMTKNQVSLTCEVKGFYPSDIAVEWESNGQPENNYKTTPPMLDSDGSFFLYSKLTVDKSRWQQGNVFSCSVMHEALHNHYTQKSLSLSPG
light 1: DIQMTQSPSSLSASVGDRVTITCRASQSTRSWLAWYQQKPGKAPKLLIYKASSLESGVPSRFSGSGSGTDFTLTISSLQPEDFATYYCQQYGSYSRTFGQGTKVEIKRTVAAPSVFIFPPSDEQLKSGTASVVCLLNNFYPREAKVQWKVDNALQSGNSQESVTEQDSKDSTYSLSSTLTLSKADYEKHKVYACEVTHQGLSSPVTKSFNRGEC
heavy 2: EVQLVESGGGLVQPGGSLRLSCAASGFTFSDYYMTWVRQAPGKGLEWVAFIRNQARGYTSDHNPSVKGRFTISRDNAKNSLYLQMNSLRAEDTAVYYCARDRPSYYVLDYWGQGTTVTVSSASTKGPSVFPLAPCSRSTSESTAALGCLVKDYFPEPVTVSWNSGALTSGVHTFPAVLQSSGLYSLSSVVTVPSSNFGTQTYTCNVDHKPSNTKVDKTVERKCRVRCPRCPAPPVAGPSVFLFPPKPKDTLMISRTPEVTCVVVAVSHEDPEVQFNWYVDGVEVHNAKTKPREEQFNSTFRVVSVLTVVHQDWLNGKEYKCKVSNKGLPSSIEKTISKTKGQPREPQVYTLPPSREEMTKNQVSLTCLVKGFYPSDIAVEWESNGQPENNYKTTPPMLDSDGSFFLYSRLTVDKSRWQQGNVFSCSVMHEALHNHYTQKSLSLSPGK
light 2: DIQMTQSPSSLSASVGDRVTITCTSSQSLFNVRSQKNYLAWYQQKPGKAPKLLIYWASTRESGVPSRFSGSGSGTDFTLTISSLQPEDFATYYCKQSYDLFTFGGGTKVEIKRTVAAPSVFIFPPSDEQLKSGTASVVCLLNNFYPREAKVQWKVDNALQSGNSQESVTEQDSKDSTYSLSSTLTLSKADYEKHKVYACEVTHQGLSSPVTKSFNRGEC
notes: Chains 1-2: B7-H4 arm; chains 3-4: CD3 arm; IgG2
B2: B7-H4xCD3 bispecific antibody 0068 (bispecific antibody, IgG2)
heavy 1: EVQLLESGGGLVQPGGSLRLSCAASGFTFSSYAMSWVRQAPGKGLEWVSAISGGGGSTYYADSVKGRFTISRDNSKNTLYLQMNSLRAEDTAVYYCARDIQWFGESTLFDYWGQGTLVTVSSASTKGPSVFPLAPCSRSTSESTAALGCLVKDYFPEPVTVSWNSGALTSGVHTFPAVLQSSGLYSLSSVVTVPSSNFGTQTYTCNVDHKPSNTKVDKTVERKCEVECPECPAPPVAGPSVFLFPPKPKDTLMISRTPEVTCVVVAVSHEDPEVQFNWYVDGVEVHNAKTKPREEQFNSTFRVVSVLTVVHQDWLNGKEYKCKVSNKGLPSSIEKTISKTKGQPREPQVYTLPPSREEMTKNQVSLTCEVKGFYPSDIAVEWESNGQPENNYKTTPPMLDSDGSFFLYSKLTVDKSRWQQGNVFSCSVMHEALHNHYTQKSLSLSPGK
light 1: B1 light 1 with M4L, S10T, T29I, Y36F, S56G, D70E, E81D, G92N
heavy 2: B1 heavy 2
light 2: B1 light 2
notes: Chains 1-2: B7-H4 arm; chains 3-4: CD3 arm; IgG2 EEE/RRR; also called anti-B7-H4 clone 37D4
B3: B7-H4xCD3 bispecific antibody 1133 (bispecific antibody, IgG2)
heavy 1: EVQLVESGGGLVQPGGSLRLSCAVSGGSFSGYYWNWIRQPPGKGLEWIGEINHSGSATYNPSLKSRVTISVDTAKNSLYLQMNSLRAEDTAVYYCARGLYNWNVDHWGQGTLVTVSSASTKGPSVFPLAPCSRSTSESTAALGCLVKDYFPEPVTVSWNSGALTSGVHTFPAVLQSSGLYSLSSVVTVPSSNFGTQTYTCNVDHKPSNTKVDKTVERKCEVECPECPAPPVAGPSVFLFPPKPKDTLMISRTPEVTCVVVAVSHEDPEVQFNWYVDGVEVHNAKTKPREEQFNSTFRVVSVLTVVHQDWLNGKEYKCKVSNKGLPSSIEKTISKTKGQPREPQVYTLPPSREEMTKNQVSLTCEVKGFYPSDIAVEWESNGQPENNYKTTPPMLDSDGSFFLYSKLTVDKSRWQQGNVFSCSVMHEALHNHYTQKSLSLSPG
light 1: DIQMTQSPSSLSASVGDRVTITCRASQGIRNDLGWYQQKPGKAPKRLIYAASSLQSGVPSRFSGSGSGTDFTLTISSLQPEDFATYYCLQHNAYPRTFGGGTKVEIKRTVAAPSVFIFPPSDEQLKSGTASVVCLLNNFYPREAKVQWKVDNALQSGNSQESVTEQDSKDSTYSLSSTLTLSKADYEKHKVYACEVTHQGLSSPVTKSFNRGEC
heavy 2: B1 heavy 2
light 2: B1 light 2
notes: as for B1
B4: B7-H4xCD3 bispecific antibody 0999 (bispecific antibody, IgG2)
heavy 1: B1 heavy 1
light 1: B1 light 1 with M4L, S10T, T29I, Y36F, S56G, D70E, E81D, G92N
heavy 2: B1 heavy 2
light 2: B1 light 2
notes: as for B1
B5: B7-H4xCD3 bispecific antibody 1136 (bispecific antibody, IgG2)
heavy 1: B3 heavy 1 with V24A, L78F
light 1: B3 light 1
heavy 2: B1 heavy 2
light 2: B1 light 2
notes: as for B1
B6: B7-H4xCD3 bispecific antibody 1037 (bispecific antibody, IgG2)
heavy 1: B3 heavy 1 with I37V, P40A
light 1: B3 light 1 with N92S, A93S
heavy 2: B1 heavy 2
light 2: B1 light 2
notes: as for B1
B7: B7-H4xCD3 bispecific antibody 1169 (bispecific antibody, IgG2)
heavy 1: B1 heavy 1
light 1: B1 light 1 with Y36H
heavy 2: B1 heavy 2
light 2: B1 light 2
notes: as for B1
B8: B7-H4xCD3 bispecific antibody 1134 (bispecific antibody, IgG2)
heavy 1: B3 heavy 1 with N52D, S54Q, A57T, T58K, L78F
light 1: B3 light 1
heavy 2: B1 heavy 2
light 2: B1 light 2
notes: as for B1
B9: B7-H4xCD3 bispecific antibody 1170 (bispecific antibody, IgG2)
heavy 1: B1 heavy 1
light 1: B1 light 1 with Y36L
heavy 2: B1 heavy 2
light 2: B1 light 2
notes: as for B1

Assays:
human B7-H4 on cells [1] = target: T1, human B7-H4 on cells; assay: cell-based or functional assay
[2] = target: T2, human CD3 on primary human T cells (human, UniProt P07766 23-207; P04234 22-171); assay: flow cytometry on primary human T cells, 37 C
T2 construct: whole, on cells; On cells the whole CD3/TCR complex is present
T2 sequence (P07766 23-207, chain 1 of 2): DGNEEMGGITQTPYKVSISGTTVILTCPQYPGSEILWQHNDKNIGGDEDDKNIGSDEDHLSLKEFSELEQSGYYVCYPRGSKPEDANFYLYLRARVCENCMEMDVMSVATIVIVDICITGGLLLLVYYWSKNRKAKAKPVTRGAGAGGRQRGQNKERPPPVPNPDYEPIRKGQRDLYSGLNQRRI
T2 sequence (P04234 22-171, chain 2 of 2): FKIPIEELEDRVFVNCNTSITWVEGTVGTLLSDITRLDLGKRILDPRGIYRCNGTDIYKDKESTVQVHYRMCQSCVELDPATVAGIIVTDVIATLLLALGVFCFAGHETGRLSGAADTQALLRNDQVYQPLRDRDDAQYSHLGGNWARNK

human B7-H4 on cells [3] = target: T1, human B7-H4 on cells; assay: flow cytometry on MX-1 cells, 37 C
[4] = target: T3, cyno CD3 (delta/epsilon heterodimer) (cyno, UniProt Q95LI5 22-117; Q95LI8 22-105); assay: SPR 25 C; CD3 delta/epsilon on anti-His chip, bispecific analyte
T3 construct: also called cyCD3
T3 sequence (Q95LI5 22-117, stated change not applied, chain 1 of 2): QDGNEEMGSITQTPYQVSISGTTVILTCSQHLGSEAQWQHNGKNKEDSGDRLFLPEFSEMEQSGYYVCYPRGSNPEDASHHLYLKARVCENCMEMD
T3 sequence (Q95LI8 22-105, stated change not applied, chain 2 of 2): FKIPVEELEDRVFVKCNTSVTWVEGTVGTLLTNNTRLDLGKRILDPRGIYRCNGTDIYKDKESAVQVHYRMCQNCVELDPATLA

[5] = target: T4, human CD3 (delta/epsilon heterodimer) (human, UniProt P07766 23-126; P04234 22-105); assay: as above
T4 construct: captured on an anti-His chip, so it carries a His tag; also called huCD3
T4 sequence (P07766 23-126, stated change not applied, chain 1 of 2): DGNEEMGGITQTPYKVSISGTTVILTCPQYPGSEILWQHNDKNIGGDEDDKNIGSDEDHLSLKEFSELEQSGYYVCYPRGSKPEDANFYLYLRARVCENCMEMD
T4 sequence (P04234 22-105, stated change not applied, chain 2 of 2): as the sequence (Q95LI8 22-105, stated change not applied, chain 2 of 2) above, with V5I, K15N, V20I, T32S, N33D, N34I, A64T, N74S, L83V counted along it

[6] = target: T3, cyno CD3 (delta/epsilon heterodimer); assay: SPR 37 C; CD3 delta/epsilon on anti-His chip, bispecific analyte
[7] = target: T4, human CD3 (delta/epsilon heterodimer); assay: as above
Throughout, for T cell mediated tumor cell killing, MDA-MB-468: unit not given here.
Throughout, for T cell mediated tumor cell killing, OVCAR3-Luc: unit not given here.
Throughout, for T cell mediated tumor cell killing, T47D: unit not given here.

Row | Binder | T cell mediated tumor cell killing EC50, HCC1954-Luc (human B7-H4 on cells [1]) | T cell mediated tumor cell killing, OVCAR3-Luc (human B7-H4 on cells [1]) | T cell mediated tumor cell killing, T47D (human B7-H4 on cells [1]) | EC50 [2] | EC50 (human B7-H4 on cells [3]) | other results
1 | B1 | 2160 nM | 360 | 1910 | 5.56 nM | 13.1 nM | –
2 | B2 | 284 nM | 79 | 566 | – | – | T cell mediated tumor cell killing, MDA-MB-468 (human B7-H4 on cells [1]): 332; Kd [4]: 13.5 nM; koff [4]: 0.00506 s⁻¹; kon [4]: 374000 M⁻¹ s⁻¹; Kd [5]: 13.2 nM; koff [5]: 0.00553 s⁻¹; kon [5]: 420000 M⁻¹ s⁻¹; Kd [6]: 69 nM; koff [6]: 0.0349 s⁻¹; kon [6]: 506000 M⁻¹ s⁻¹; Kd [7]: 63 nM; koff [7]: 0.0349 s⁻¹; kon [7]: 554000 M⁻¹ s⁻¹
3 | B3 | 790 nM | – | 2810 | 5.73 nM | 1.47 nM | –
4 | B4 | 277 nM | 90 | 258 | 9.77 nM | 3.9 nM | –
5 | B5 | 500 nM | – | 3820 | 5.7 nM | 3.55 nM | –
6 | B6 | 620 nM | – | 1270 | 5.78 nM | 3.64 nM | –
7 | B7 | 975 nM | 190 | 818 | 5.22 nM | 10 nM | –
8 | B8 | 1560 nM | 540 | 7330 | 6.9 nM | 17.6 nM | –
9 | B9 | 595 nM | 130 | 444 | 5.51 nM | 6.88 nM | –
